The nature of the data set: yeast display, Sf9 membrane polyspecificity reagent, FACS + sequencing; frameworks hold sequencing errors. The gist of the method: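 Sorting gates, low and high (top ~1%), were placed on anti-HA fluorescence to track expression and on streptavidin fluorescence to track reagent binding. A clone's polyreactivity label is taken from the gate it came out of. The reagent was 10% biotinylated, detergent-solubilized Sf9 membrane, applied for 1 hour at 4 °C to galactose-induced yeast display cells.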
On to “QVQLVESGGGIVQAGGSLRLSSAASGRIFDGYTKGWYRHEPGKERQLVAAITYRSGRTYYADSVKGRFTISRDNAKNTVYLQMHSLKPDDTAVYYCAAPWYRGGNTESYYWGQGTQVTVSS”, for which the “polyreactivity (PSR sort gate)” value is recorded as “high polyreactivity”.

Regarding “QVQLVESGGGIVQAGGSLRLSSAASGSTFVYNAMGSYRQAPGKERELVASITRSGSSTYYADSVKGRFTISRDNAKNTVYLQMNSLKPEDSAVYYCAVRYYVLSYYRYYYWGQGTQVTVSS”, the “polyreactivity (PSR sort gate)” value is given as “low polyreactivity”.

For the sequence “QVQLVESGGGIVQAGGSLRLTCAASGRIFPTYAMGWYRQAPGKEREMVATINGDGGSTYYAYSVKGRFTISRDNPKNTVYLHMNSLKPEDTSVDYCAKSYPFAAEYDYWGQGSQVTVSS”, the “polyreactivity (PSR sort gate)” value is “low polyreactivity”.

For “QVQLVESGGGIVQAGGSLRVSCAASGFTFHKYAMGWYRQAPGTERELVAVISQSASSTYYADSVKGRFTISRDNAKNTVYFQMNGLKPEDTAVYYCNAKYYRYNRRNYWGQVTQVTVSS”, the “polyreactivity (PSR sort gate)” value is on record as “high polyreactivity”.

Turning to “QVQLVESGGGIVQAGRSLRLSCAASGRIFYTNVMGWYRQAPGKERELDAAISSAGTTYYADSVKGRFTISRDNAKNTVYLQMNSLKPEDTAVYYCAADQVAYYGFDYWGQVTQVTVSS”, the “polyreactivity (PSR sort gate)” value was “low polyreactivity”.

In the case of “QVQLVESGGGIVQAGVILRLSCAATGITFWNNAMRWYRQARGKERELVATISSNGGRTYYADSVKGRFTISRDNAKNTVYLQMNSLKPEDTAVYYCKARQVLYGLYLRAYPYEYWGQGTQVTVSS”, the “polyreactivity (PSR sort gate)” value is “low polyreactivity”.

Regarding “QVQLVESGGGIVQARGSLRLSCAASGSILSSYAMGWYTQAPGKERELVAAISKSGTRTYYADSVKGRFTISRDNAKNTVYLQMNSLKPEDTAVYYCAARYYSRTTAMDYWGQGTQVTVSS”, the “polyreactivity (PSR sort gate)” value is reported as “high polyreactivity”.

On to “QVQLVESGGGIVQEGGSLSLSCAASGRIFFDYAMGWYRQAPGKERELVADIDWSGGITYYADSVKGRYTISRDNAKNTVYLQMNSLNPEDTAVYYCAVEFDELYPTTAYGEFEYWGQVTQVTVSS”, for which the “polyreactivity (PSR sort gate)” value is “high polyreactivity”.

Take “QVQLVESGGGKVQAGGSLRLSCAASGFTFSNAMGWYRQAPGKERELVAAITRIGGSTFYADSVKGRFTISRDNAKNTVYLQLNSLKPEDTAVYSCAADYGLPLYEGYYWGQGTQVTVSS”: the “polyreactivity (PSR sort gate)” value was “low polyreactivity”.

Consider “QVQLVESGGGKVQAGGSLRLSCAASGRTFRWYAMGWYRQAPGKERELVAAITSSSSTNYADSVKGRFTISRDNAKNTVYLQMNSLKPEDTAVYYCAKGWNWYDLGESGYWGQGTQVTVSS”, for which the “polyreactivity (PSR sort gate)” value is given as “low polyreactivity”.

In the case of “QVQLVESGGGKVQAGGSLRLSCAASGRTFWVYAMGWYRPAPGKERELVASISWSVGSTYYADSVKGRFTISRDNAKNTVYLQMNSLKPEDTAVYYCAADPSPYGDEYDYWGQGTQVTVSS”, the “polyreactivity (PSR sort gate)” value was “low polyreactivity”.

Regarding “QVQLVESGGGKVQAGRSHRLTCAASGSIFYTYPMGWYRQAPGKERELVAAIRSSDGSTYYADSVKGRFTISRDYAKNTVYIQMNSLKSEYTGVYYCAAENIPGEGYYHFEYDYWGQGTQVTVSS”, the “polyreactivity (PSR sort gate)” value is given as “low polyreactivity”.

Regarding “QVQLVESGGGLAQAGGSLRLRCAASGRTFPSYAMGWYSQAPGKERELVAAISRSGARTYYADSVKGRFTISRDNAKTTVYLQMNSLKPDDTAVYYCAAVGSTRYEYWGQGSQVTVSS”, the “polyreactivity (PSR sort gate)” value was “high polyreactivity”.

For “QVQLVESGGGLAQAGGSLRLSCAASGRIIYFNAMGWYRQAPGKEREFVAAISSSGNTYYADSVKGRFTISLDNAKNTVYLQMNSLKPEDTEVYYCDAAIYSYYPASGYKRYDYWGQGTQVTVSS”, the “polyreactivity (PSR sort gate)” value was “high polyreactivity”.

“QVQLVESGGGLCQAGGSLRLSCAASGRTFYKNTMGWYRQAPGKERELVAAISIRGGSTYFADTVKGRFTISRDNAKNTFYLQMNSLKPEDTAVYYCNVVYQKAARIVDFDYWGQGTQVTLSS”: the “polyreactivity (PSR sort gate)” value is “high polyreactivity”.

On to “QVQLVESGGGLDHAGGRLRLSCAASGSIFIYYAMGWYRQAPGKERELVAAISNGGSTNYADSVKGRFTFSRDNAKNTVYLQMNSLKPEDTAVYYCNTDWGYFHGVRAYLGYGYWGQGTQVTVSS”, for which the “polyreactivity (PSR sort gate)” value is “low polyreactivity”.

Turning to “QVQLVESGGGLDHAGGSLRLSCAASGYTLTDYVMGWYRQAPGKQRELVAAIDWRDGTTYADSVKGRFTISRDNAKNTVYLQFNILKPEDTAVYFCGTDELLTSPRYPEYDYWGQGTQVTVSS”, the “polyreactivity (PSR sort gate)” value is “low polyreactivity”.

On to “QVQLVESGGGLDLAGGSLRLTCAASGSTFTYYAMGWYRQAPGKERELVAAISWRGASTYYADSVKGRFTISRDNAKNTVYLQMNSLNPEDTAVNYCNAVKQRSSIFDYWGQGTQVTVSS”, for which the “polyreactivity (PSR sort gate)” value is reported as “low polyreactivity”.

As to “QVQLVESGGGLDPAGGSLRLSCAASGFTFYRNAMGWYRQAPGKERELVAGITRSGGSTYYADSVKGRFTISRDNAKNTVYLQMNSLKPEDTAVYYCNKAYGGVKYSGTYDYWGQGTQVTVSS”, the “polyreactivity (PSR sort gate)” value is “high polyreactivity”.

As for “QVQLVESGGGLDQAAGSLPLSCAASGLIFPVYAMGWYRQAPGKAREFVASIWRGGTTYYADSVKGRFTISRDNAKNTVYLQMNSLNPEDTAVYYCAARYYPSGLVFPFTKYDYWGQGTQVTVSS”, the “polyreactivity (PSR sort gate)” value is recorded as “high polyreactivity”.

Turning to “QVQLVESGGGLDQAGGSHRLSCAASGSTFPYPNTMGWYRQAPGKERELVAVISRTGGSTFYADSVKWRFTISRDNAKNTVYFQMNSLKPEDTAVYYCAARRDGWTFWKYDYWGHGTQVTVSS”, the “polyreactivity (PSR sort gate)” value was “high polyreactivity”.

As to “QVQLVESGGGLDQAGGSHRLSCAASGSTFYPYAMRWYRQAPGKERELVAGITVIDGSTYYADSVKGRFTMSRDNAKNPVYFQMNSLKPEDTAVYYCAVDGPNQVQEYGYWGQGTQVTVSS”, the “polyreactivity (PSR sort gate)” value is recorded as “low polyreactivity”.

Take “QVQLVESGGGLDQAGGSLLLSCAASGFTFGPYAMGWYRQAPGKERELVATIRSGYSTNYADSVKGRFTISRDNAKNTVYLQMNSLKPEDTAVYYFNREGWHYGPYGYWGQGTQVNVSS”: the “polyreactivity (PSR sort gate)” value is recorded as “low polyreactivity”.

On to “QVQLVESGGGLDQAGGSLPLSCAASGRILQGYAMGWYRQAPGKEREMVASIRTGGTTNYADSVKGRFTISRDNAKNTVYLQMNSLKPEDTAVYYCNRGYDSYYGRYYYWGQGTQVTVSS”, for which the “polyreactivity (PSR sort gate)” value was “high polyreactivity”.

As to “QVQLVESGGGLDQAGGSLRLICAASGRTFATNTMVWYRQAPGKERELVAAITFSGGSTYYADSVKGRFTISRDNEKNSVYLQMNSLKPEETAVYYCNVRSPYYSYRYRYGYWGQGTQVTVSS”, the “polyreactivity (PSR sort gate)” value is “high polyreactivity”.

For “QVQLVESGGGLDQAGGSLRLICAASGRTFYYAMGWYRQAPGKERYADSVKGRFTISRDNAKNTVYLQMNSLKPEDTAVYYCAAKVPEPPSLDESDYWGQGTQVTVSS”, the “polyreactivity (PSR sort gate)” value was “low polyreactivity”.

For “QVQLVESGGGLDQAGGSLRLICAASGRTFYYNVMGWYRQAPGKERELVAAISTGVSTNYADSVKGRFTISRDNAKNTVYLQMNSQKPEDTAVYYCNSRSYRWYRPVYRYDYWGQGTQVTVSS”, the “polyreactivity (PSR sort gate)” value is reported as “high polyreactivity”.

For “QVQLVESGGGLDQAGGSLRLRCAASGSTFLINAMGWYRQAPGKESELVAAISSSSGNTYYADSVKWRFTISRDNAKNTVYLQMNSLKPEDTAVYYCKAVFTRGVTQYDHYYWGQGTQVTVSS”, the “polyreactivity (PSR sort gate)” value is recorded as “high polyreactivity”.

For the sequence “QVQLVESGGGLDQAGGSLRLSCAASGFIFAYYAMGWYRQAPGKERELVAAISSGGRTYYADSVKGRFTISRDNAKNTVYLQLNSLKPEDTAVYYCNKRFYPEHYYWGQGTQVTVSS”, the “polyreactivity (PSR sort gate)” value was “high polyreactivity”.

As to “QVQLVESGGGLDQAGGSLRLSCAASGFIFGPNAMGWYRQAPGKERELVAAISWIGSSTYYADSVKGRFTISRDNAKNTVYIKMNSLTPEDTPVYYCAADSSERRLLDFDYWGQGTQVTVSS”, the “polyreactivity (PSR sort gate)” value was “low polyreactivity”.

Values taken from the nanobody polyreactivity screen of Harvey et al. (2022).
